One substance from patent US12168686 can be followed below.

The target in test [1] is soluble DR5-Fc fusion protein (UniProt O14763). Kind of test: BLI (ForteBio Octet), ratio of kon against TRAIL-Trimer. (BLI is a label-free optical method that tracks binding on a fibre tip over time.)
Test [2] has the same target. Kind of test: BLI (ForteBio Octet), biotin-labeled DR5-Fc on streptavidin sensors, analyte 15.4 nM-123.5 nM.
The target is the same in test [3]. The test can be described thus: BLI (ForteBio Octet), ratio of koff against TRAIL-Trimer.
For test [4] the target is unchanged. Kind of test: BLI (ForteBio Octet), biotin-labeled DR5-Fc on streptavidin sensors.

Some results are limits rather than exact numbers.

Sequence of soluble DR5-Fc fusion protein (O14763 56-182 limits assumed): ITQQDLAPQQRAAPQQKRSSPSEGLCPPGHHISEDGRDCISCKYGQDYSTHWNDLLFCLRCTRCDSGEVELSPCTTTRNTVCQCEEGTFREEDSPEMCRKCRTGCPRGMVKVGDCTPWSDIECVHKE
Sequence of native TRAIL (recombinant soluble human TRAIL from E. coli) (P50591 114-281 limits assumed): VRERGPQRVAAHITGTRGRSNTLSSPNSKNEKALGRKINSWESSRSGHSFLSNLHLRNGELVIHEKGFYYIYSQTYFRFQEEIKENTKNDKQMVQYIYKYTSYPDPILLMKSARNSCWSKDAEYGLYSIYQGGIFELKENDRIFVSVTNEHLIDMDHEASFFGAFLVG

For orientation: Kd means the free concentration of one partner at which half of the binding sites on the other are occupied at equilibrium, for simple one-to-one binding. Low readings indicate a tighter complex, high ones a looser complex. In general, koff refers to a measure of how fast the partners let go of each other. Higher therefore signals fast dissociation. As usually defined, the kon is the second-order rate constant of association. “native TRAIL (recombinant soluble human TRAIL from E. coli) (from UniProt P50591 114-281) (ligand)”: the fold faster association than TRAIL-Trimer in test [1] came out at 2 fold. In test [2], the Kd came out at 0.263 nM. Moreover, in test [3], the fold faster dissociation than TRAIL-Trimer is more than 460 fold. In test [4], this substance gave a koff of 4.6e-05 s⁻¹ and a kon of 175000 M⁻¹ s⁻¹.
